Source: US20060240510A1, “Method for designing peptides” (CTT Cancer Targeting Technologies OY, priority 2002, published 2006)
Like-named read-outs stand apart in the source and are kept apart here. One block for each molecule: values may come before it. Where a SMILES comes first, the peptide text is derived from it. Bridges are numbered along the chain shown (N, C = ends). Where no end group is shown, it is not given here.

Tests used:
MMP-9 = molecular target: T1, MMP-9 (Homo sapiens, UniProt P14780); assay: Gelatin degradation assay (biotinylated gelatin), MMP-9; type: biochemical
T1 construct: purchased Roche
T1 sequence (P14780 107-707 limits assumed): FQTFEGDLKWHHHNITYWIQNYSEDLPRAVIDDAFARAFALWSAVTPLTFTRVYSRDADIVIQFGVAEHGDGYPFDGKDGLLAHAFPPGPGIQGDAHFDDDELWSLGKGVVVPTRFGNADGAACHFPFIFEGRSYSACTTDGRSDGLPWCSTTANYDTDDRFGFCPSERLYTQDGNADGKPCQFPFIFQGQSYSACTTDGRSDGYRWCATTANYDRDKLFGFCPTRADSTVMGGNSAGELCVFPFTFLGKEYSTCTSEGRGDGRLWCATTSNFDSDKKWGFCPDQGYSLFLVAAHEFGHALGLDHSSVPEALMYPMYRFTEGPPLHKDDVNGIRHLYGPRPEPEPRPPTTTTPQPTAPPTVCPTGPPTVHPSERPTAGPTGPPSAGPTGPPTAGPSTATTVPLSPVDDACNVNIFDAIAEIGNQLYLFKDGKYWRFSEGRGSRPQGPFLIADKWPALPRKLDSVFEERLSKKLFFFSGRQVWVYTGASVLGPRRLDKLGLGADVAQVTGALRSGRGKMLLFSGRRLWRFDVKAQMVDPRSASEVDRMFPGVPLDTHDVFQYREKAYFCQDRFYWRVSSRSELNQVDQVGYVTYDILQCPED
Method: (§1) FIG. 1A and 1B. Inhibition of NWP-2 and MMP-9 by synthetic or intein-produced peptides. (A) MMP-9 was treated with CTT, iCTT, or STT at the peptide concentrations indicated. MMP-9 activity was determined using biotinylated gelatin. (13) The activity of the alanine mutant peptides (see Table 1) was compared to that of CTT, which inhibited MMP-2 by 100% in the gelatin degradation assay. In all assays the peptides were preincubated with the enzyme for 30 min before the substrate was added.
(§2) Gelatinase inhibition assays. Gelatiases proMMP-2 and proMMP-9 (Roche) were activated with p-aminophenylmercuric acetate or trypsin, respectively, and then incubated in the presence or absence of each peptide to be tested for 30 min. The gelatinase inhibitory activity was determined using the following three assays: (i) The degradation of biotinylated gelatin was examined using a gelatinase activity kit according to the manufacturer's instructions. (Roche). […] (iii) The degradation of β-casein was studied by incubating activated MMP-2 with 0.1 mg/ml concentration of β-casein for 2 h at 37° C., after which the samples were analyzed on a 15% SDS-PAGE gel.

[1] = Solubility in water / PBS
Method: The oligonucleotide was made double-stranded using PCR. The PCR product was digested with PstI and SapI and cloned to TWIN2 intein vector (New England Biolabs), digested also with PstI and SapI. This DNA construct was electroporated into MC1061 competent cells. […] The plasmid vectors were extracted from the pool of at least 216 independent clones of MC1061. The plasmids were then electroporated to ER2566 cells enabling the production of inteins. The cells harboring the plasmids were plated on LB plates containing ampicillin. 10 independent clones were pooled to one single pool. These 10 clones in one pool were cultured and the peptides were expressed and purified with chitin affinity column and reverse-phase C18 column. Each pool of peptides was tested for activity. The solubility in PBS was also tested. […] The plasmid coding for this peptide was sequenced and the peptide was synthesized with chemical synthesis.

MMP-2 [2] = molecular target: T2, MMP-2 (Homo sapiens, UniProt P08253); assay: Gelatin degradation assay (biotinylated gelatin), MMP-2; type: biochemical
T2 construct: purchased Roche
T2 sequence (P08253 110-660): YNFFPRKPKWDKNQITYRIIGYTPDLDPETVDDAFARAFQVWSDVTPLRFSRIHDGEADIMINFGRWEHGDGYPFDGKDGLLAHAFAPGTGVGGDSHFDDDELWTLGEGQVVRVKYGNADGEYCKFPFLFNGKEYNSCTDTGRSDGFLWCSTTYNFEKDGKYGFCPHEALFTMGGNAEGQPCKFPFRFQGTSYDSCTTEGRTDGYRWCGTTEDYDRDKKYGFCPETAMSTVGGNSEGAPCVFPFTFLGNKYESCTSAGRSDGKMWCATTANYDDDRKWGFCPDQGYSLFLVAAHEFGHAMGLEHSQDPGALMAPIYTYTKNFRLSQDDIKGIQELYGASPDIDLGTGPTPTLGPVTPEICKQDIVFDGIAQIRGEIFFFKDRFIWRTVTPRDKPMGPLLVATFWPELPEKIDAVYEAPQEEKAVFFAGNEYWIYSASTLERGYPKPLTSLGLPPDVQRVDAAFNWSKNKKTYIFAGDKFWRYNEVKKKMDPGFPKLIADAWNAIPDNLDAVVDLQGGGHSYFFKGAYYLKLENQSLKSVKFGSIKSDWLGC
Method: as §1
(§3) Gelatinase inhibition assays. Gelatiases proMMP-2 and proMMP-9 (Roche) were activated with p-aminophenylmercuric acetate or trypsin, respectively, and then incubated in the presence or absence of each peptide to be tested for 30 min. The gelatinase inhibitory activity was determined using the following three assays: (i) The degradation of biotinylated gelatin was examined using a gelatinase activity kit according to the manufacturer's instructions. (Roche). (ii) The degradation of a MMP-2 specific fluorescent peptide substrate MCA-Pro-Leu-Ala-Nva-Dpa-Ala-Arg-NH2 (Calbiochem) (2.5 μM final concentration) was followed using MOS-250 spectrofluorometer (Bio-Logic SA, Claix, France) with 330 nm excitation and 390 nm emission. (iii) The degradation of β-casein was studied by incubating activated MMP-2 with 0.1 mg/ml concentration of β-casein for 2 h at 37° C., after which the samples were analyzed on a 15% SDS-PAGE gel.

gelatinase A (MMP-2) = molecular target: T3, gelatinase A (MMP-2) (Homo sapiens, UniProt P08253); assay: Inhibition of gelatinase A by hydrophilic CTT library peptides; type: biochemical; conditions: FIG. 5
T3 construct: purchased Roche
T3 sequence (P08253 110-660): T2 sequence (P08253 110-660)
From the text: FIG. 5. Inhibition of gelatiaase A (MMP-2) with CTT-peptide, with pool 1 and pool 2, both containing 10 different peptide derivates of CTT. The library contains 216 different combinations of CTT peptide derivates. Clone 4 from pool 1 and clone 7 from pool 2 were purified and tested also for their inhibition activity against gelatinase A.
as §3
The oligonucleotide was made double-stranded using PCR. […] This DNA construct was electroporated into MC1061 competent cells. […]

[3] = Peptide stability in cell culture medium; type: in vitro ADME; conditions: cell culture medium with 10% heat-inactivated fetal calf serum
Method: The gelatinase inhibitory activities of the modified CTT peptides were tested in the β-casein degradation assay (FIG. 3A) and the gelatin degradation assay (data not shown). […] To determine the peptide levels, we used anti-CTT antibody that also recognized the 5F-Trp containing peptide. […] We could not determine the half-lives of 5OH-Trp and 6F-Trp containing peptides as the anti-CTT antibody recognized these peptides only weakly in the presence of serum.

[4] = Peptide stability in human serum; type: in vitro ADME; conditions: undiluted human serum, 37° C., anti-CTT antibody dot blot
Method: (§4) FIG. 3A and 3B. Activity and stability of the tryptophan analogue containing CTT peptides. (A) Inhibition of MMP-2 using β-casein (21 IcDa) as substrate. The peptides (100 μM) were incubated with MMP-2 and β-casein (0.1 mg/ml) for 2 h and samples run on a 15% SDS-PAGE gel. (B) iCTT, 5F-CTT or a negative control peptide CERGGLETSC at a 150 μM concentration was incubated in undiluted human serum for the indicated time periods at 37° C. Samples were withdrawn, stored frozen and blotted on a nitrocellulose membrane. The level of CTT was quantitated using polyclonal anti-CTT antibody. The blots were scanned and the results shown are means ±SD from triplicate measurements. The results were similar in two other experiments.
Spectrometry and fluorometry. The absorbance spectrum for each peptide in the 200-375 nm range was measured in 20 mM Tris-HCl (pH 7.4)/50 mM NaCl/0.1 mM EDTA with Genesys 5 spectrophotometer (Thermo Spectronic, Rochester, N.Y.). The fluorescence spectra of the CTT phage cultured in the presence of tryptophan, 5FW or 6FW were measured from heat-denatured phages (2×10^9/ml) in 10 mM Tris-HCl (pH 7.5)/140 mM NaCl/1% SDS. The fluorescence emission spectra (average of three scans) at 300-500 nm were recorded with MOS-250 spectrofluorometer. The peptides were excited at 295 nm (bandwidth 5 nm) and the emission spectra recorded in the 300-500 nm range. Peptide stability in human serum. […]

MMP-2 [5] = molecular target: T2, MMP-2; assay: β-casein degradation assay; type: biochemical; conditions: peptide 100 μM; β-casein 0.1 mg/ml, 2 h
Method: as §4, §2

[6] = molecular target: T4, MMP-2 (gelatinase A), activated (UniProt P08253 30-660, limits assumed); assay: cell-based or functional assay
T4 sequence (looked up): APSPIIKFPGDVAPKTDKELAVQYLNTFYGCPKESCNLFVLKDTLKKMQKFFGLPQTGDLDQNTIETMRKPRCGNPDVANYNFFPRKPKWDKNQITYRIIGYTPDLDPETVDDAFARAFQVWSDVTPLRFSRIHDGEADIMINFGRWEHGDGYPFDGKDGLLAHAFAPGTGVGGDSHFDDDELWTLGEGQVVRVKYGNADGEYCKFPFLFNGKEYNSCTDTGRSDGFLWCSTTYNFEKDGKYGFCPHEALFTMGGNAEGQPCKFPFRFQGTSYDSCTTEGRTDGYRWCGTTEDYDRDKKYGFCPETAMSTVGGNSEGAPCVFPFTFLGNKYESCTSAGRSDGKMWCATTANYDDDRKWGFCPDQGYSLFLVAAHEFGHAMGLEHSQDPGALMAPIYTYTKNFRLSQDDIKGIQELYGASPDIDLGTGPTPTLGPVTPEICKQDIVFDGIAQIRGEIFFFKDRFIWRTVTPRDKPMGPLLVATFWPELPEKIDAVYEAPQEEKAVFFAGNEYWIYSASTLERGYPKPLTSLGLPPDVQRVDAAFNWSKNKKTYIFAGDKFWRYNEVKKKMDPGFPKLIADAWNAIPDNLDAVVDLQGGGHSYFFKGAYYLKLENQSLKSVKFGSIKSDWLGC

MMP-9, activated = MMP-9, activated (UniProt P14780 20-707, limits assumed); assay: cell-based or functional assay
MMP-9, activated, sequence (P14780 20-707 limits assumed): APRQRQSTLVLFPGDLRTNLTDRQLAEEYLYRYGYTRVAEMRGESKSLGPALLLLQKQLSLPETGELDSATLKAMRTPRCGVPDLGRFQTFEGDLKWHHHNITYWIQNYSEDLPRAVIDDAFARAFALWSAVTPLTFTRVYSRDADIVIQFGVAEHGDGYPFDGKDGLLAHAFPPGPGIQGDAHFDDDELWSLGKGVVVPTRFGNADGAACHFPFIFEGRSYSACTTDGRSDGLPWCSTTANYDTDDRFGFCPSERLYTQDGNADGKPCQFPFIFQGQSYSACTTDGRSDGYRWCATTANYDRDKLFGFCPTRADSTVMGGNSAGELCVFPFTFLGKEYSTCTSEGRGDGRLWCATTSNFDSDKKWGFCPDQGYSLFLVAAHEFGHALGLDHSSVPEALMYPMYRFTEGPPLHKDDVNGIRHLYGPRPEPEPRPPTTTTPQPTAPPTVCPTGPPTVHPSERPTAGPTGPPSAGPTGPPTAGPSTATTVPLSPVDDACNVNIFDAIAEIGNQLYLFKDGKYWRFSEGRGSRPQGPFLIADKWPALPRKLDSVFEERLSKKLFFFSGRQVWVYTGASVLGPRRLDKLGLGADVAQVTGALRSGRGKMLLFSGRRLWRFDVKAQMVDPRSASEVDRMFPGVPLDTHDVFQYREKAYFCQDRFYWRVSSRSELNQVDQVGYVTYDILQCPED

Molecule: CC(C)C[C@@H]1NC(=O)[C@H]([C@@H](C)O)NC(=O)[C@H](Cc2ccccc2)NC(=O)CNC(=O)[C@H](Cc2c[nH]c3ccccc23)NC(=O)[C@H](Cc2c[nH]cn2)NC(=O)[C@H]([C@@H](C)O)NC(=O)[C@H]([C@@H](C)O)NC(=O)[C@@H](N)CSSC[C@@H](C(=O)O)NC1=O [CTT, CTTHWGFTLC] (HELM PEPTIDE1{C.T.T.H.W.G.F.T.L.C}$PEPTIDE1,PEPTIDE1,1:R3-10:R3$$$V2.0; bridges inferred)
IC50 (MMP-9; 30 min preincubation, read-out: IC50, MMP-9 inhibition): 20 µM
solubility [1]: water-soluble
IC50 (MMP-2 [2]; 30 min preincubation, read-out: IC50, MMP-2 inhibition): 20 µM
inhibition of MMP-2 (MMP-2 [2]; FIG. 1B): 100%

Molecule: GRENYHGCTTRWGFTLC
gelatinase A inhibitory activity (gelatinase A (MMP-2)): active
solubility ([1]; water or PBS): more soluble into water or PBS than the original peptide

% of the activity in comparison to the wild type peptide (MMP-2 [2]; FIG. 1B, CTT = 100% inhibition): about 80%
Molecule: CTTAWGFTLC (disulfide 1-10 (inferred)) [H→A, Ala-substitution of the CTT-peptide]

stability compared with CTT [3]: No difference
half-life at 150 μM [4]: 3 h
Molecule: CC(C)C[C@@H]1NC(=O)[C@H]([C@@H](C)O)NC(=O)[C@H](Cc2ccccc2)NC(=O)CNC(=O)[C@H](Cc2c[nH]c3ccc(F)cc23)NC(=O)[C@H](Cc2c[nH]cn2)NC(=O)[C@H]([C@@H](C)O)NC(=O)[C@H]([C@@H](C)O)NC(=O)[C@@H](N)CSSC[C@@H](C(=O)O)NC1=O [5F-Trp containing peptide, CTTH(5FW)GFTLC] (HELM PEPTIDE1{C.T.T.H.[O=C([C@H](Cc1c[nH]c2ccc(F)cc12)N[*:1])[*:2]].G.F.T.L.C}$PEPTIDE1,PEPTIDE1,1:R3-10:R3$$$V2.0; N-terminus and C-terminus assumed)

Molecule: CC(C)C[C@@H]1NC(=O)[C@H]([C@@H](C)O)NC(=O)[C@H](Cc2ccccc2)NC(=O)CNC(=O)[C@H](Cc2c[nH]c3ccccc23)NC(=O)[C@H](Cc2c[nH]cn2)NC(=O)[C@H]([C@@H](C)O)NC(=O)[C@H]([C@@H](C)O)NC(=O)[C@@H](N)CSSC[C@@H](C(=O)O)NC1=O [iCTT, CTTHWGFTLC] (HELM PEPTIDE1{C.T.T.H.W.G.F.T.L.C}$PEPTIDE1,PEPTIDE1,1:R3-10:R3$$$V2.0; N-terminus and C-terminus assumed)
half-life at 150 μM [4]: 0.5 h
inhibition of casein degradation by MMP-2 (MMP-2 [5]): nearly complete inhibition

gelatinase inhibitory activity relative to iCTT (MMP-9; FIG. 1A): several fold less active than iCTT
Molecule: STTHWGFTLS [non-cyclic synthetic control peptide]

IC50, gelatin degradation assay [6]: 20 µM
IC50, gelatin degradation assay (MMP-9, activated): 20 µM
B1: CTT: CTTHWGFTLC peptide (chemically synthesized) (peptide)
peptide: CTTHWGFTLC
modifications: disulfide 1-10 (inferred)

activity in comparison to the wild type peptide, gelatin degradation assay [6]: 17 % of the activity of the wild type peptide
B2: W → A alanine mutant of CTT (peptide)
peptide: CTTHAGFTLC
modifications: disulfide 1-10 (inferred)

activity in comparison to the wild type peptide, gelatin degradation assay [6]: 36 % of the activity of the wild type peptide
B3: F → A alanine mutant of CTT (peptide)
peptide: CTTHWGATLC
modifications: disulfide 1-10 (inferred)

activity in comparison to the wild type peptide, gelatin degradation assay [6]: 53 % of the activity of the wild type peptide
B4: G → A alanine mutant of CTT (peptide)
peptide: CTTHWAFTLC
modifications: disulfide 1-10 (inferred)

IC50, gelatin degradation assay [6]: 20 µM
IC50, gelatin degradation assay (MMP-9, activated): 20 µM
B5: iCTT: recombinant CTTHWGFTLC peptide (peptide)
peptide: CTTHWGFTLC
modifications: disulfide 1-10 (inferred)
